One block for each binder: values may come before it.
Legend:
Experiment in all cases: holdup assay
Set-up in all cases: key: below the threshold = too weak to quantify, mostly under pKd 3.1 to 4
AHNAK1, Q09666 = biological target: AHNAK1, Q09666
APBA2_1, Q99767 = biological target: T1, APBA2_1, Q99767
T1 sequence (Q99767 563-664, limits assumed, looked up): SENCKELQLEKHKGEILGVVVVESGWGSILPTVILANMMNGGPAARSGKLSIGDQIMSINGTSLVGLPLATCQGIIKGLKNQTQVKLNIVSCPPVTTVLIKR

APBA3_1, O96018 = biological target: T2, APBA3_1, O96018
T2 sequence (O96018 389-490, limits assumed, looked up): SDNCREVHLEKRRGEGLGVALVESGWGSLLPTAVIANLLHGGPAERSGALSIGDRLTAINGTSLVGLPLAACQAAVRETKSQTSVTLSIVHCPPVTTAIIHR

ARHGEF11, O15085 = biological target: T3, ARHGEF11, O15085
T3 sequence (O15085 42-136, limits assumed, looked up): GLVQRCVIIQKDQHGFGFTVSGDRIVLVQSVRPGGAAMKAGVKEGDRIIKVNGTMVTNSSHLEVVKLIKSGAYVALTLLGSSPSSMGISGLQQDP

DLG2_3, Q15700 = biological target: DLG2_3, Q15700
DLG3_1, Q92796 = biological target: T4, DLG3_1, Q92796
T4 sequence (Q92796 125-227, limits assumed, looked up): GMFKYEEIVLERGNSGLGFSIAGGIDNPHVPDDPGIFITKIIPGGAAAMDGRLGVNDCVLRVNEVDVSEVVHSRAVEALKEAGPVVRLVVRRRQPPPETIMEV

DLG5_1, Q8TDM6 = biological target: DLG5_1, Q8TDM6
Sequence of DLG5_1, Q8TDM6 (Q8TDM6 617-713): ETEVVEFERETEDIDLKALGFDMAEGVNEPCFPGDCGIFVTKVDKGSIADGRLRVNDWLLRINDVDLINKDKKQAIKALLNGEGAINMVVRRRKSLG

DVL3, Q92997 = biological target: T5, DVL3, Q92997
T5 sequence (Q92997 244-331, limits assumed, looked up): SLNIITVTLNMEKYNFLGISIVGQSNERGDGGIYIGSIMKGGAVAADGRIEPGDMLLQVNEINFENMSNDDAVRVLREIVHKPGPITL

FRMPD2_1, Q68DX3 = biological target: FRMPD2_1, Q68DX3
Sequence of FRMPD2_1, Q68DX3 (Q68DX3 770-861): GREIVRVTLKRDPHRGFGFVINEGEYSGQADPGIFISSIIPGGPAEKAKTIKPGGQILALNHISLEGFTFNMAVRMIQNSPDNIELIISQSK

FRMPD2_3, Q68DX3 = biological target: FRMPD2_3, Q68DX3
Sequence of FRMPD2_3, Q68DX3 (Q68DX3 1073-1166): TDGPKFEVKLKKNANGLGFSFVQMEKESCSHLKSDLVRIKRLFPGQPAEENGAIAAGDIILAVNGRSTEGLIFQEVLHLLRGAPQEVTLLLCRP

GRIP2_6, Q9C0E4 = biological target: GRIP2_6, Q9C0E4
Sequence of GRIP2_6, Q9C0E4 (Q9C0E4 648-740): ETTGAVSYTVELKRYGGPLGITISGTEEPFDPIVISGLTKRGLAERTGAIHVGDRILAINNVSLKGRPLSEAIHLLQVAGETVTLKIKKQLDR

HTRA2, O43464 = biological target: HTRA2, O43464
Sequence of HTRA2, O43464 (O43464 355-458): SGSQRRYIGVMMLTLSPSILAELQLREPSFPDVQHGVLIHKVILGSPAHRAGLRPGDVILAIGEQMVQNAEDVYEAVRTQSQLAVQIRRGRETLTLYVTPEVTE

IL16_4, Q14005 = biological target: IL16_4, Q14005
Sequence of IL16_4, Q14005 (Q14005 1229-1329): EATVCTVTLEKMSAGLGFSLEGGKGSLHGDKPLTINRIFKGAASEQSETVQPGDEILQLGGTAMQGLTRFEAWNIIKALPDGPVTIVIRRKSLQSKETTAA

LAP2, Q96RT1 = biological target: LAP2, Q96RT1
Sequence of LAP2, Q96RT1 (Q96RT1 other isoform, or with tags, fused parts or gaps): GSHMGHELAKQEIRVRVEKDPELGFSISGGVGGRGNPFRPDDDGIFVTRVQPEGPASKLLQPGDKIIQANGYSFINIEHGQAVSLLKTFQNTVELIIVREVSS

LRRC7, Q96NW7 = biological target: T6, LRRC7, Q96NW7
T6 sequence (Q96NW7 1440-1537, limits assumed, looked up): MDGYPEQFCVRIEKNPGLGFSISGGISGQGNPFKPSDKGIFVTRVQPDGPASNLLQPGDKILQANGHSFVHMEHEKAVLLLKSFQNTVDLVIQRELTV

MAGI2_6, Q86UL8 = biological target: MAGI2_6, Q86UL8
Sequence of MAGI2_6, Q86UL8 (Q86UL8 1141-1229): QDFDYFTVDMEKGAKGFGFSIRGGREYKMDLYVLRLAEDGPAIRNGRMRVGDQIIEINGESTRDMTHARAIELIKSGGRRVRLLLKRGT

MPP6, Q9NZW5 = biological target: T7, MPP6, Q9NZW5
T7 sequence (Q9NZW5 125-219, limits assumed, looked up): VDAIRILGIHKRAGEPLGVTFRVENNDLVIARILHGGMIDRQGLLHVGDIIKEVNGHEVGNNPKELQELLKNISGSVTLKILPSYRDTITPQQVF

MPP7, Q5T2T1 = biological target: T8, MPP7, Q5T2T1
T8 sequence (Q5T2T1 134-230, limits assumed, looked up): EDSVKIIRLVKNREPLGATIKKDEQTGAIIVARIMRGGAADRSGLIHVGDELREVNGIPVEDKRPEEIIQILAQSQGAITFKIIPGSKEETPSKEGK

PARD3_3, Q8TEW0 = biological target: PARD3_3, Q8TEW0
Sequence of PARD3_3, Q8TEW0 (Q8TEW0 582-685): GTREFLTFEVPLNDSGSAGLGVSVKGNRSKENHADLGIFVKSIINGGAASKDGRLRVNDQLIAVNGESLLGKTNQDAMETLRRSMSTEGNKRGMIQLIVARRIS

PDZD2_2, O15018 = biological target: T9, PDZD2_2, O15018
T9 sequence (O15018 329-429, limits assumed, looked up): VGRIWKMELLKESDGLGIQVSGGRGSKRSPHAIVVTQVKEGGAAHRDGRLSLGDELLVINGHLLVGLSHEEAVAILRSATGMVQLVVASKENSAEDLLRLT

PTPN13_1, Q12923 = biological target: T10, PTPN13_1, Q12923
T10 sequence (Q12923 1088-1188, limits assumed, looked up): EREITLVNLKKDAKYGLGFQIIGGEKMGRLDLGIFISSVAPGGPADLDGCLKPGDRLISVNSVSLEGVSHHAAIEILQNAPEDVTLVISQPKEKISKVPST

RAPGEF6, Q8TEU7 = biological target: T11, RAPGEF6, Q8TEU7
T11 sequence (Q8TEU7 525-625, limits assumed, looked up): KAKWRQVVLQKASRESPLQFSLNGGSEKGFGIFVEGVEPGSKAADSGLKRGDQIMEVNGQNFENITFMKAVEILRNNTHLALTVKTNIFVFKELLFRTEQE

SNTA1, Q13424 = biological target: T12, SNTA1, Q13424
T12 sequence (Q13424 82-180, limits assumed, looked up): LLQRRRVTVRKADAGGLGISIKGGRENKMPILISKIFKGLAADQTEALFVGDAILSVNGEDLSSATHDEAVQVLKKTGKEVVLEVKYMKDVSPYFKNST

SNTB1, Q13884 = biological target: T13, SNTB1, Q13884
T13 sequence (Q13884 107-205, limits assumed, looked up): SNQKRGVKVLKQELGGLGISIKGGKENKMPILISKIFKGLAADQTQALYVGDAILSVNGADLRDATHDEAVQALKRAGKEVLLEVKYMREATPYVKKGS

SNX27, Q96L92 = biological target: SNX27, Q96L92
[1] = plain residues with an end cap or a label only (N-terminal biotin on a linker: ahx)
[2] = plain residues with an end cap or a label only (N-terminal biotin on a linker: ttds)

Sequence of AHNAK1, Q09666 (Q09666 4-100): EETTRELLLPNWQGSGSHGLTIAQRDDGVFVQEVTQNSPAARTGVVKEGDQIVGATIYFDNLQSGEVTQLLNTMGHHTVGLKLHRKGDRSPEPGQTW

- pKd (AHNAK1, Q09666; [1]): below the threshold
- pKd (APBA2_1, Q99767; [1]): below the threshold
- pKd (APBA3_1, O96018; [1]): below the threshold
- pKd (ARHGEF11, O15085; [1]): 4.1
- pKd (DLG2_3, Q15700; [1]): below the threshold
- pKd (DLG3_1, Q92796; [1]): below the threshold
- pKd (DLG5_1, Q8TDM6; [1]): below the threshold
- pKd (DVL3, Q92997; [1]): below the threshold
- pKd (FRMPD2_1, Q68DX3; [1]): below the threshold
- pKd (FRMPD2_3, Q68DX3; [1]): below the threshold
- pKd (GRIP2_6, Q9C0E4; [1]): below the threshold
- pKd (HTRA2, O43464; [1]): below the threshold
- pKd (IL16_4, Q14005; [1]): below the threshold
- pKd (LAP2, Q96RT1; [1]): 3.62
- pKd (LRRC7, Q96NW7; [1]): below the threshold
- pKd (MAGI2_6, Q86UL8; [1]): 4.57
- pKd (MPP6, Q9NZW5; [1]): below the threshold
- pKd (MPP7, Q5T2T1; [1]): below the threshold
- pKd (PARD3_3, Q8TEW0; [1]): 3.91
- pKd (PDZD2_2, O15018; [1]): 5.72
- pKd (PTPN13_1, Q12923; [1]): below the threshold
- pKd (RAPGEF6, Q8TEU7; [1]): below the threshold
- pKd (SNTA1, Q13424; [1]): 3.61
- pKd (SNTB1, Q13884; [1]): 3.87
- pKd (SNX27, Q96L92; [1]): 5.32
B1: RAPGEF2, Q9Y4G8 (peptide)
chain: EDEDEQVSAV

- pKd (AHNAK1, Q09666; [2]): below the threshold
- pKd (APBA2_1, Q99767; [2]): below the threshold
- pKd (APBA3_1, O96018; [2]): below the threshold
- pKd (ARHGEF11, O15085; [2]): 4
- pKd (DLG2_3, Q15700; [2]): below the threshold
- pKd (DLG3_1, Q92796; [2]): 3.49
- pKd (DLG5_1, Q8TDM6; [2]): below the threshold
- pKd (DVL3, Q92997; [2]): below the threshold
- pKd (FRMPD2_1, Q68DX3; [2]): below the threshold
- pKd (FRMPD2_3, Q68DX3; [2]): below the threshold
- pKd (GRIP2_6, Q9C0E4; [2]): 3.54
- pKd (HTRA2, O43464; [2]): below the threshold
- pKd (IL16_4, Q14005; [2]): below the threshold
- pKd (LAP2, Q96RT1; [2]): 3.5
- pKd (LRRC7, Q96NW7; [2]): 3.68
- pKd (MAGI2_6, Q86UL8; [2]): 4.95
- pKd (MPP6, Q9NZW5; [2]): below the threshold
- pKd (MPP7, Q5T2T1; [2]): below the threshold
- pKd (PARD3_3, Q8TEW0; [2]): 3.48
- pKd (PDZD2_2, O15018; [2]): 3.59
- pKd (PTPN13_1, Q12923; [2]): below the threshold
- pKd (RAPGEF6, Q8TEU7; [2]): below the threshold
- pKd (SNTA1, Q13424; [2]): 5.34
- pKd (SNTB1, Q13884; [2]): 5.51
- pKd (SNX27, Q96L92; [2]): 4.44
B2: KCNA5, P22460 (peptide)
chain: CLDTSRETDL

- pKd (AHNAK1, Q09666; [2]): below the threshold
- pKd (APBA2_1, Q99767; [2]): below the threshold
- pKd (APBA3_1, O96018; [2]): below the threshold
- pKd (ARHGEF11, O15085; [2]): 4.44
- pKd (DLG2_3, Q15700; [2]): 3.49
- pKd (DLG3_1, Q92796; [2]): below the threshold
- pKd (DLG5_1, Q8TDM6; [2]): below the threshold
- pKd (DVL3, Q92997; [2]): below the threshold
- pKd (FRMPD2_1, Q68DX3; [2]): below the threshold
- pKd (FRMPD2_3, Q68DX3; [2]): below the threshold
- pKd (GRIP2_6, Q9C0E4; [2]): below the threshold
- pKd (HTRA2, O43464; [2]): below the threshold
- pKd (IL16_4, Q14005; [2]): below the threshold
- pKd (LAP2, Q96RT1; [2]): below the threshold
- pKd (LRRC7, Q96NW7; [2]): 3.55
- pKd (MAGI2_6, Q86UL8; [2]): below the threshold
- pKd (MPP6, Q9NZW5; [2]): 3.73
- pKd (MPP7, Q5T2T1; [2]): 3.61
- pKd (PARD3_3, Q8TEW0; [2]): 3.71
- pKd (PDZD2_2, O15018; [2]): 3.55
- pKd (PTPN13_1, Q12923; [2]): below the threshold
- pKd (RAPGEF6, Q8TEU7; [2]): 3.7
- pKd (SNTA1, Q13424; [2]): 3.87
- pKd (SNTB1, Q13884; [2]): 4.14
- pKd (SNX27, Q96L92; [2]): 3.5
B3: RPS6KA1, Q15418 (peptide)
chain: RRVRKLPSTTL

— paper PMC9482650, “Quantitative fragmentomics allow affinity mapping of interactomes” (Nature Communications, 2022)
